Measurements: patent US20180140739A1, “HAEMOSTATIC DEVICE” (HAEMOSTATIX LIMITED, priority 2015, published 2018)
Ends that are not written are not given here.

Tests used:
[1] = target: T1, purified human fibrinogen (Homo sapiens, UniProt P02675+P02679); test: Polymerisation (clotting) of purified fibrinogen, Sigma Amelung KC4 Delta coagulation analyser; assay type: biochemical
T1 sequence (P02679 27-433 limits assumed): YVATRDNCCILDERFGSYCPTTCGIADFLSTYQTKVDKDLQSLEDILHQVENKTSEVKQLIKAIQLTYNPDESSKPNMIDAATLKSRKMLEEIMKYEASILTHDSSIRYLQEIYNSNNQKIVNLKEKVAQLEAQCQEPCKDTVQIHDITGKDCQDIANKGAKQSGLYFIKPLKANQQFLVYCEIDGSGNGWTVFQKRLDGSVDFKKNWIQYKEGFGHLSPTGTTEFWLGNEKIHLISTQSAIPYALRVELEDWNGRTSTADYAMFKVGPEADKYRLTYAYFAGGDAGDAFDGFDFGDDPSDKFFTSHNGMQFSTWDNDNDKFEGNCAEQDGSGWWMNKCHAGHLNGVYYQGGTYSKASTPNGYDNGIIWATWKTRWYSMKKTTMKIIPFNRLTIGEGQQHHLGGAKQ
T1 sequence (P02675 31-491): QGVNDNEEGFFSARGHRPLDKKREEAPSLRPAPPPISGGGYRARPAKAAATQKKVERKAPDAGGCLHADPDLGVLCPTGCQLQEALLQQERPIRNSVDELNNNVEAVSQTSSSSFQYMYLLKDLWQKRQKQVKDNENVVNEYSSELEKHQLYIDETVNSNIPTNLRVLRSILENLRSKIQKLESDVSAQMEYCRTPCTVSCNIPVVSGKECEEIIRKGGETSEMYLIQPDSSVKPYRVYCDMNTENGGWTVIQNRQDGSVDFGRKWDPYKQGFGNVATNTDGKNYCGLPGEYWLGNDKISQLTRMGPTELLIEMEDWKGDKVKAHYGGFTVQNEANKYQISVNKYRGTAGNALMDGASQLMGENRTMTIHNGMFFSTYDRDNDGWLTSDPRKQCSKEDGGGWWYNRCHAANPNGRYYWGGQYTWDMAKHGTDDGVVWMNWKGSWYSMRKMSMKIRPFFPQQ
T1 sequence (P02671 20-629 partner limits assumed): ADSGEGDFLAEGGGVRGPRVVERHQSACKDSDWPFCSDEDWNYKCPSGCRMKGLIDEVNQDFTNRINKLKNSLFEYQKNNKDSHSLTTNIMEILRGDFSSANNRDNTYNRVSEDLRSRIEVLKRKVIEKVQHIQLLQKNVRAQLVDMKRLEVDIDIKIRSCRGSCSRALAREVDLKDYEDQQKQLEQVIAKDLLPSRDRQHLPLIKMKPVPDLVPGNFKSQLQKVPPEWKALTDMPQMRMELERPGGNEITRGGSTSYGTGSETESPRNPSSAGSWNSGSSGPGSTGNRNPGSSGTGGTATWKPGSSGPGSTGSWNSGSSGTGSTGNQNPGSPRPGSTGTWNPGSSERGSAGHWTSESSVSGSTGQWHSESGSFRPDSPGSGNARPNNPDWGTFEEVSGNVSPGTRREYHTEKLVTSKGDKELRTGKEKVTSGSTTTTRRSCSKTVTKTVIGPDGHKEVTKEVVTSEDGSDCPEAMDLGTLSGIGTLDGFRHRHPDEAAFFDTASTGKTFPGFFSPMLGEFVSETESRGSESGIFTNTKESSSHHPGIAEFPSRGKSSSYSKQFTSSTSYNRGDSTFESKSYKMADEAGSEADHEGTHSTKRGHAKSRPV
Experimental: The ability of Peptide Dendrimer No. 12 to polymerise fibrinogen was assessed. 30 μl of dendrimer in solution, at concentration ranging from 0.005-2 mg/ml, was added to 100 μl purified human fibrinogen at 3 mg/ml (the level of fibrinogen found in the blood). Polymerisation of fibrinogen was analysed using a Sigma Amelung KC4 Delta coagulation analyser.
The concentration of each dendrimer was varied from 0.005-0.5 mg/ml.

[2] = target: T2, human fibrinogen (Homo sapiens, UniProt P02675+P02679); test: Clotting activity of dendrimers extracted from gelatin paste after gamma irradiation and storage; assay type: biochemical; conditions: fibrinogen 3 mg/ml, 37° C.
T2 sequence (P02679 27-433 limits assumed): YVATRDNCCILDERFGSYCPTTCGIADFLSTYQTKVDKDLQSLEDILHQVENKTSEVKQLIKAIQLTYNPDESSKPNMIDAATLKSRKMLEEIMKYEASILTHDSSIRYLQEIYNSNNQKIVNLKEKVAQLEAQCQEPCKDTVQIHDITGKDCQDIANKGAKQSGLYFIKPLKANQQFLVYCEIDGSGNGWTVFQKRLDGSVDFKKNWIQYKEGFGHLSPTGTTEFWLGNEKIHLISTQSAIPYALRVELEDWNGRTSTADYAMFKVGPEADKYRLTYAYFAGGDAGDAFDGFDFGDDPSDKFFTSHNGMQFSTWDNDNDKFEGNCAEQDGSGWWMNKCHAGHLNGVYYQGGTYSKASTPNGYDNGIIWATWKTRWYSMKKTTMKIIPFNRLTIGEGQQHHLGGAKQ
T2 sequence (P02675 31-491): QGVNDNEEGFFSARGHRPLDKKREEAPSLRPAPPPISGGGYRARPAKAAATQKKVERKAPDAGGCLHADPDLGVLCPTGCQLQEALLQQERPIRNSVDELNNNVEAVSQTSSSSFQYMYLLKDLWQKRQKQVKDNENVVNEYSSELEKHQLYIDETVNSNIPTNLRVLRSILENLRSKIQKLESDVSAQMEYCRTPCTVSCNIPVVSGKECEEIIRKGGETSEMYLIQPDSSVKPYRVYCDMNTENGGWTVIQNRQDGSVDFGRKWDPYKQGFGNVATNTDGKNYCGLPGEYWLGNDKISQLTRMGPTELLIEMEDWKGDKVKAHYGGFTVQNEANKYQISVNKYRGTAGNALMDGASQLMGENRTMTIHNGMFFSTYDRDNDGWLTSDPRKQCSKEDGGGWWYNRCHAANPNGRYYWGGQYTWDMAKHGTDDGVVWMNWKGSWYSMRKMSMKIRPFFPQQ
T2 sequence (P02671 20-629 partner limits assumed): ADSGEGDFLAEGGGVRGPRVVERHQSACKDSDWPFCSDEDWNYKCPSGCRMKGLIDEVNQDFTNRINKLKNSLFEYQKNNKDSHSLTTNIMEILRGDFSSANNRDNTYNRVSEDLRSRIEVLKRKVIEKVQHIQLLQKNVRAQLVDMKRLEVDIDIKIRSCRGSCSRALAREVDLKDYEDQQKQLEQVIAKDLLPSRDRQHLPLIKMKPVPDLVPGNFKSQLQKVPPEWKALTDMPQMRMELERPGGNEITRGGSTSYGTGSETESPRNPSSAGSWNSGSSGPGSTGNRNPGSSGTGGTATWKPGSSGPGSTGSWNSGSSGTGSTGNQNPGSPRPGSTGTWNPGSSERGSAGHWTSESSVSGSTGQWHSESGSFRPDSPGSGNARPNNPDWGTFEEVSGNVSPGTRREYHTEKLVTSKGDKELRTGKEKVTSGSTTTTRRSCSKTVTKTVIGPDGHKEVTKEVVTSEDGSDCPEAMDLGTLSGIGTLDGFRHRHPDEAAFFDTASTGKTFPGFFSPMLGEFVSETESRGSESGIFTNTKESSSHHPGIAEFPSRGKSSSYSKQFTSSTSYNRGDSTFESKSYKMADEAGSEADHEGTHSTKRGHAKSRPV
Experimental: 2 ml of solution of Peptide Dendrimer No. 12 or 13 was mixed with SURGIFLO Haemostatic Matrix (a hydrated flowable gelatin matrix) to form a paste of each peptide. Each paste was sterilised by irradiation with ^60Co gamma rays at a dose of 30 kGy, and then stored at room temperature. Samples of the sterilised pastes were used for testing after storage for two and four weeks.
After storage, peptide dendrimers were extracted from each paste using […] HEPES buffer. 30 μL of each extract (with a peptide concentration of about 0.25 mg/ml) was added to 100 μL of human fibrinogen at 3 mg/ml, and the ability of each dendrimer to polymerise fibrinogen (the ‘clotting’ activity) at 37° C. was determined using a Sigma Amelung KC4 Delta coagulation analyser. The polymerisation activity of non-irradiated control samples was also determined.

[3] = target: T3, fibrinogen in human plasma (Homo sapiens, UniProt P02675+P02679); test: Polymerisation of fibrinogen in human plasma, KC4 Delta coagulation analyzer; assay type: biochemical; conditions: dendrimer 0.25 mg/ml, 30 μL to 100 μL human plasma, 37° C.
T3 construct: from tissue; host or cells: human plasma
T3 sequence (P02679 27-433 limits assumed): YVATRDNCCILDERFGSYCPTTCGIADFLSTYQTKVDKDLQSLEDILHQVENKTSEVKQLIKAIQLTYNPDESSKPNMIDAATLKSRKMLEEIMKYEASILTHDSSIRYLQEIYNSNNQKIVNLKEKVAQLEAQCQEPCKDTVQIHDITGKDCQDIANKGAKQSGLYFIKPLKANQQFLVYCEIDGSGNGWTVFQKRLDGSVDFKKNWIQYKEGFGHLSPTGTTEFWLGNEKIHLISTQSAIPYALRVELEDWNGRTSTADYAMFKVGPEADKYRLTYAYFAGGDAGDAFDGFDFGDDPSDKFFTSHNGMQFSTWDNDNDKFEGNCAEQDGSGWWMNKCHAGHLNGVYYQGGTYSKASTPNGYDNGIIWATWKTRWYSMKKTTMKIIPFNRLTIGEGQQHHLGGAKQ
T3 sequence (P02675 31-491): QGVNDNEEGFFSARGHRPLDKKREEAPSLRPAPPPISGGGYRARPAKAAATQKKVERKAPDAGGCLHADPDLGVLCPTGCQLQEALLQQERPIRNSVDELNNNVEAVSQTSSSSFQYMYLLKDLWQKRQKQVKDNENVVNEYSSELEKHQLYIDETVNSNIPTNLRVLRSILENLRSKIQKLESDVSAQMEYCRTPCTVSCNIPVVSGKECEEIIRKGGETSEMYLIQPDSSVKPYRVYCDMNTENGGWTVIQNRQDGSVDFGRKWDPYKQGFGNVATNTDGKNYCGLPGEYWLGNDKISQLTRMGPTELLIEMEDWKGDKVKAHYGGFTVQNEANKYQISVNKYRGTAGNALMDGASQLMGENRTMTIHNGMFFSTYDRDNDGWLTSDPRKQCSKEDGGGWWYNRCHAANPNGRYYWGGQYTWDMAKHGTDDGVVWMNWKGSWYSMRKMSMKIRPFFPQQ
T3 sequence (P02671 20-629 partner limits assumed): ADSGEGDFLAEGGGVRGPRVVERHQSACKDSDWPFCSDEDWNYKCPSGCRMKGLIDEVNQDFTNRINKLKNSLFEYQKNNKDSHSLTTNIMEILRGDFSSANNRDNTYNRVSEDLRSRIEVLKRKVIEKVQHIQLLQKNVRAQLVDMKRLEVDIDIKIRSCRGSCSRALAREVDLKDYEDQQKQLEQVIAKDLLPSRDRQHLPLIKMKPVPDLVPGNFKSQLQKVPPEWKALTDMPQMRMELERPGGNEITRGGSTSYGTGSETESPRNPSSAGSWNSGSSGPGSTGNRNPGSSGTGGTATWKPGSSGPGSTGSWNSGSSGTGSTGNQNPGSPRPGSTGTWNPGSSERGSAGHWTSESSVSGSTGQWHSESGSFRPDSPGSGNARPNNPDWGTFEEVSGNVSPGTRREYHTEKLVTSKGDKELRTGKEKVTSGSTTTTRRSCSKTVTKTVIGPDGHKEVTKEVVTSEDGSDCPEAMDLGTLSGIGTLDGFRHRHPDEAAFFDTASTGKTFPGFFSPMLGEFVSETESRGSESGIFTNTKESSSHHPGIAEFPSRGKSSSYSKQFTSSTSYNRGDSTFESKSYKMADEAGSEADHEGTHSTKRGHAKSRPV
Experimental: 30 μL of each dendrimer (at a concentration of 0.25 mg/ml) was added to 100 μL human plasma at 37° C., and polymerisation of fibrinogen was determined using a Sigma Amelung KC4 Delta coagulation analyzer.

[4] = target: human fibrinogen (human) (UniProt P02671); test: cell-based or functional assay

With “Peptide Dendrimer No. 12 (peptide GPRPG; chain KKKKK)” the “copolymerisation with fibrinogen (clotting time)” value ([1]; dendrimer 0.005-2 mg/ml, fibrinogen 3 mg/ml) was “able to copolymerise with fibrinogen almost instantaneously, even at very low concentrations”, the “clotting time at high dendrimer concentration” value ([1]; dendrimer concentrations above 0.5 mg/ml, fibrinogen 3 mg/ml) was “increase in clotting time” and the clotting ([1]; dendrimer range ~0.02-0.5 mg/ml) was “almost instantaneous clotting”. For the same molecule, the “Clotting activity, Non-irradiated control” value ([2]; extract from SURGIFLO paste, about 0.25 mg/ml peptide, not irradiated) was 1 s, the “Clotting activity, Storage for 2 weeks post irradiation” value ([2]; paste irradiated 30 kGy 60Co gamma, stored 2 weeks at room temperature, about 0.25 mg/ml) was 1 s and the “Clotting activity, Storage for 4 weeks post irradiation” value ([2]; paste irradiated 30 kGy 60Co gamma, stored 4 weeks at room temperature, about 0.25 mg/ml) was 1 s. The “ability to polymerise fibrinogen in human plasma” value [3] was “able to polymerise fibrinogen in human plasma” and the “clotting time in human plasma” value [3] was “less than one”.

B1: Peptide Dendrimer No. 12 (peptide, from a related filing, part only)
peptide: GPRPG
chain: KKKKK
modifications: also: five-arm dendrimer, all arms GPRPG, C-termini attached to branched core
Molecule B1 has a Clotting activity (seconds), non-irradiated control; extract about 0.25 mg/ml with human fibrinogen 3 mg/ml, 37° C. [4] of 1 s, a Clotting activity (seconds), storage for 2 weeks post irradiation (30 kGy); extract about 0.25 mg/ml with human fibrinogen 3 mg/ml, 37° C. [4] of 1 s and a Clotting activity (seconds), storage for 4 weeks post irradiation (30 kGy); extract about 0.25 mg/ml with human fibrinogen 3 mg/ml, 37° C. [4] of 1 s. The clotting time in human plasma, dendrimer 0.25 mg/ml, 37° C., coagulation analyser [4] was under 1 s.
